Laboratory results as given in patent publication US9029097 (UNIVERSITE DE MONTREAL, dated 2015).

Biological target: T1, β2AR-GFP10 (human, UniProt P07550 1-413)
T1 construct: whole, on cells; Expressed in HEK293T cells; also called GFP tagged-β2 adrenergic receptor; not shown: GFP10, variant of GFP
Experiment: BRET2 kinetics, living cells, 10 µM Iso up to 4 min

- binding result: binds
B1: QL-Gαi1-122Rluc (other)
chain: MGCTLSAEDKAAVERSKMIDRNLREDGEKAAREVKLLLLGAGESGKSTIVKQMKIIHEAGYSEEECKQYKAVVYSNTIQSIIAIIRAMGRLKIDFGDSARADDARQLFVLAGAAEEGFMTAESGGGGSMTSKVYDPEQRKRMITGPQWWARCKQMNVLDSFINYYDSEKHAENAVIFLHGNAASSYLWRHVVPHIEPVARCIIPDLIGMGKSGKSGNGSYRLLDHYKYLTAWFELLNLPKKIIFVGHDWGACLAFHYSYEHQDKIKAIVHAESVVDVIESWDEWPDIEEDIALIKSEEGEKMVLENNFFVETMLPSKIMRKLEPEEFAAYLEPFKEKGEVRRPTLSWPREIPLVKGGKPDVVQIVRNYNAYLRASDDLPKMFIESDPGFFSNAIVEGAKKFPNTEFVKVKGLHFSQEDAPDEMGKYIKSFVERVLKNEQSGGGGSLAGVIKRLWKDSGVQACFNRSREYQLNDSAAYYLNDLDRIAQPNYIPTQQDVLRTRVKTTGIVETHFTFKDLHFKMFDVGGLRSERKKWIHCFEGVTAIIFCVALSDYDLVLAEDEEMNRMHESMKLFDSICNNKWFTDTSIILFLNKKDLFEEKIKKSPLTICYPEYAGSNTYEEAAAYIQCQFEDLNKRKDTKEIYTHFTCATDTKNVQFVFDAVTDVIIKNNLKDCGLF
notes: unable to hydrolyse GTP; also called Rluc-tagged constitutively active Q204L-Gαi1 mutant
